System: Bacillus subtilis
Assay: cleaved RNA product abundance (RNA/gDNA barcode ratio) relative to median wild-type variant (ratio to wild type); higher = more accumulation of the downstream cleavage product
Summary of the method: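 The B. subtilis chromosome carried reporter mRNAs, truncated aprE or tetM, containing barcoded RNase Y cleavage-site windows mutagenized using oligos with a 9% error rate. After growth in LB at 37°C from OD600 0.0003 to 0.3, cleaved RNA was gel-selected, reverse transcribed and barcode-sequenced next to genomic DNA barcodes, with UMI collapsing. Each construct's RNA:gDNA barcode ratio was scaled to the median construct with the unmutated site. That scaled ratio is reported as cleaved product abundance.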

[1] = experiment (reporter, strain, medium): exp 4a: truncated aprE reporter, strain BJT201 with 2% xylose (RNase J1 expressed), cleavage site: cggR-gapA (positions -7 to +36 mutated)
[2] = experiment (reporter, strain, medium): exp 8a: truncated aprE reporter, strain BJT201 with 2% xylose (RNase J1 expressed), cleavage site: glnRA (positions -5 to +31 mutated)
[3] = experiment (reporter, strain, medium): exp 2b: truncated aprE reporter, strain BJT200, cleavage site: cggR-gapA (positions -7 to +36 mutated)
[4] = experiment (reporter, strain, medium): exp 6: tetM reporter, strain 168, cleavage site: cggR-gapA (positions -7 to +36 mutated)

| Sequence | cleaved RNA product abundance [1] | cleaved RNA product abundance [2] | cleaved RNA product abundance [3] | further results |
| --- | --- | --- | --- | --- |
| ACAGACGAAGGAGCCGCTAAGAAGTTATTAAGGGATGAATAATCCCCCAATATAAATATCTCTCACTTATTTAAA | 0.342 | – | – | – |
| CGACATGTCCCGCTTCTTTCATTACTCCGTTAGCAACTGTTTTGCTATATAAATTTACCTTTTAAGAGGAGGAAT | – | 0.276 | – | – |
| ACAGACGAAGGAGCCGCAAAGAAGTTATTAAGGGATGAATTTTCCCTCAATATAAATATCTCTCACTTATTTAAA | 0.73 | – | – | – |
| CGACATGTCCCGCTTCTTTCATTAATCCGTTAGCAACTGTTTTTCTATATACACTTACCTTTTAAGAGGAGGAAT | – | 0.721 | – | – |
| ACAGACGAAGGAGCCGCAAAAAAGTTATTAAGGGATGAATAATACCTCAATATAAATATCTCTCACTTATTTAAA | 0.17 | – | 0.139 | – |
| ACAGACGAAGGAGCCGCAAAGAAGTTATTAAAGGATGAATAATCTCTCAATATAAATATCTCTCACTTATTTAAA | 0.149 | – | – | – |
| ACAGACGAAGGAGCCGCAAAGAAGTTATTCAGGGATGAATAATCCGTCAATATAAATATCTCTCACTTATTTAAA | – | – | 0.117 | – |
| ACAGACGAAGGAGCCGCAAAGAAGTTATTAAGGATTGAATAATCCCTCAATATAAATATCTCTCACTTATTTAAA | 0.301 | – | 0.217 | – |
| CGACATGTCCCGCTTCTTTCATTAATCCGTTAGCAACTGATTTGCTATATACATTTTCCTTTTAAGAGGAGGAAT | – | 0.328 | – | – |
| CGACATGTCCCGCTTCTTTCATTAATCCGTTAGCAACCGTTTTGCAATATACATTTACCTTTTAAGAGGAGGAAT | – | 0.344 | – | – |
| ACAGACGAAGGAGCCGCAAAGAAGTTATTAAGGGATGAATAATCCCTCAATATACATCTCTCTCACTTATTTAAA | 0.206 | – | – | – |
| ACAGACGAAGGAGCCGCAAAGAAGTTAATAAGGGATGAATAATCCCTTAATATAAATATCTCTCACTTATTTAAA | 0.519 | – | 0.572 | – |
| CGACATGTCCCGCTTCTTTCATTAATCCGTTAGCAACTGTTTCGTTATATACATTTACCTTTTAAGAGGAGGAAT | – | 0.222 | – | – |
| ACAGACGAAGGAGCCGCAAAGAAGTTATTAAGGGATGAATAATCCCTCGTTATAAATATCTCTCACTTATTTAAA | 0.157 | – | 0.097 | – |
| CGACATGTCCCGCTTCTTTCATTAATCCGTTATGAACTGTTTTGCTATATACATTTACCTTTTAAGAGGAGGAAT | – | 0.252 | – | – |
| CGACATGTCCCGCTTCTTTCATTAATCCGTTAGCAACTGTTTTGCTATATACGTTTACCTTTTAAGAGGAGGAAT | – | 0.361 | – | – |
| ACAGACGAAGGAGCCGCAAAGAAGTTATTAAGGTATGAATAATCCCTCAATATAAATGTCTCTCACTTATTTAAA | 0.107 | – | – | – |
| CGACATGTCCCGCTTCTTTCATTAATCCGTTAGCAACTGATTTGCCATATACATTTACCTTTTAAGAGGAGGAAT | – | 0.226 | – | – |
| ACAGACGAAGGAGCCGCAAAGAAGTTATTAAGGGATGAATAATCCCTCAATATAAAAATCTCTCACTTATTTAAA | 0.794 | – | 0.906 | cleaved RNA product abundance [4]: 0.602 |
| ACAGACGAAGGAGCCGCAAAGAAGTTAGTAAGGGATCAATAATCCCTCAATATAAATATCTCTCACTTATTTAAA | 0.305 | – | – | – |

| Sequence | cleaved RNA product abundance [1] | cleaved RNA product abundance [2] | cleaved RNA product abundance [3] | further results |
| --- | --- | --- | --- | --- |
| CGACATGTCCCGCTTCTTTCATTAATCCGTTAGCAACTGTTTCGCTATATACATTTACCTTTTAAGAGGAGGAAT | – | 0.358 | – | – |
| ACAGACGAAGGAGCCGCAACAAGTTATTAAGGGATGAATAATCCCTCAATATAAATATCTCTCACTTATTTAAAG | 0.581 | – | – | – |
| ACAGACGAAGGAGCCGCAAAGAAGTTATTAAGGGATGAATAATCCTTCAATATACATATCTCTCACTTATTTAAA | 0.785 | – | 0.334 | – |
| CGACATGTCCCGCTTCTTTCATTACTCCGTTAGCAACTGTTTTGCTATATACATTTATCTTTTAAGAGGAGGAAT | – | 1.8 | – | – |
| ACAGACGAAGGAGCCGCAAAGAAGTTATTAATGAATGAATAATCCCTCAATATAAATATCTCTCACTTATTTAAA | 0.137 | – | 0.0941 | – |
| ACAGACGAAGGAGCCGCAAAGAAGTTATTAAGAGATGAATAATCCCTCAATGTAAATATCTCTCACTTATTTAAA | 0.0609 | – | 0.0969 | – |
| CGACATGTCCCGCTTCTTTCATTACTCCGTTAGCAACTGTTTTGCTATATACATTTGCCTTTTAAGAGGAGGAAT | – | 0.366 | – | – |
| ACAGACGAAGGAGCCGCAAATAAGTTATTAAGGGATGAATAATCCCTCAATATAAATATATCTCACTTATTTAAA | 0.814 | – | – | – |
| ACAGACGAAGGAGCCGCAAAGAAGTTATTAAGGGATGAATAATCTCTCAATATATATATCTCTCACTTATTTAAA | 0.989 | – | 0.682 | – |
| CGACATGTCCCGCTTCTTTCATTAATCCGTTAACAACTGTTTTGCTATATACAATTACCTTTTAAGAGGAGGAAT | – | 0.242 | – | – |
| CGACATGTCCCGCTTCTTTCATTAATCCGATAGCAACTGTTTTGCTATATACATCTACCTTTTAAGAGGAGGAAT | – | 0.88 | – | – |
| ACAGACGAAGGAGCCGCAAAGAAGTTATTAAGAGATTAATAATCCCTCAATATAAATATCTCTCACTTATTTAAA | 0.115 | – | 0.116 | – |
| CGACATGTCCCGCTTCTTTCATTAATCAGTTAGCAACTGTTTTGCTATATATATTTACCTTTTAAGAGGAGGAAT | – | 0.759 | – | – |
| CGACATGTCCCGCTTCTTTCATTAATCCGTTAGCAACTGTTTTTCTATATACAATTACCTTTTAAGAGGAGGAAT | – | 0.846 | – | – |
| CGACATGTCCCGCTTCTTTCATTAATCCGTTAGCAACTGTTTTGCTATATACATTTGCCTTTTAAGAGGAGGAAT | – | 0.413 | – | – |
| CGACATGTCCCGCTTCTTTCATTACTCCGTTAGCAACTGTTTTGCTATATACATTCACCTTTTAAGAGGAGGAAT | – | 0.658 | – | – |
| ACAGACGAAGGAGCCGCAATGAAGTTATTAAGCGATGAATAATCCCTCAATATAAATATCTCTCACTTATTTAAA | 0.108 | – | 0.0928 | – |
| ACAGACGAAGGAGCCGCAAAGAAGTTATTAAGGGATGAATATACCCTCAATATAAATATCTCTCACTTATTTAAA | 0.485 | – | – | – |
| ACAGACGAAGGAGCCGCAAAGAAGTTATTAAGGCATGAATAATCCCTCAATATAAAAATCTCTCACTTATTTAAA | 0.0882 | – | – | – |
| ACAGACGAAGGAGCCGCAAAAAAGTTATTAAGAGATGAATAATTCCTCAATATAAATATCTCTCACTTATTTAAA | 0.159 | – | – | – |

| Sequence | cleaved RNA product abundance [1] | cleaved RNA product abundance [2] | cleaved RNA product abundance [3] | further results |
| --- | --- | --- | --- | --- |
| ACAGACGAAGGAGCCGCAAAAAAGTAATTAAGGGATGAATAATCCCTCAATATAAATATCTCTCACTTATTTAAA | 0.342 | – | 0.304 | – |
| ACAGACGAAGGAGCCGCAAAGAAGTTATTAAAGGATGAATATTCCCTAAATATAAATATCTCTCACTTATTTAAA | – | – | 0.0923 | – |
| ACAGACGAAGGAGCCGCAAAGAAGTTATTAAGGGATTGAATAATCCCTCAATATAAATATCTCTCACTTATTTAA | 0.788 | – | – | – |
| ACAGACGAAGGAGCCGCAAAGAAGTTATTAACGGATGAATAATCCTTCAATATAAATATCTCTCACTTATTTAAA | 0.223 | – | – | – |
| ACAGACGAAGGAGCCGCAAAGAAGTTATTAAAGGATGAACAATCCCTCAATATAAATATCTCTCACTTATTTAAA | 0.207 | – | 0.0976 | – |
| CGACATGTCCCGCTTCTTTCATTAATCCGTTAGCGACTGTTTTGATATATACATTTACCTTTTAAGAGGAGGAAT | – | 0.24 | – | – |
| ACAGACGAAGGAGCCGCAAAAAAGTTATTAAGGGATGAATAATCCCTCAATATACATATCTCTCACTTATTTAAA | 0.996 | – | – | – |
| CGACATGTCCCGCTTCTTTCATTAATGCGTTAGCAACTGTTTTACTATATACATTTACCTTTTAAGAGGAGGAAT | – | 0.324 | – | – |
| ACAGACGAAGGAGCCGCAAAGAATTTATTAAGGGATTAATAATCCCTCAATATAAATATCTCTCACTTATTTAAA | 0.772 | – | 0.771 | – |
| ACAGACGAAGGAGCCGCAAAGAAGTTATTAAGGCATGAATAATCCCTCAATATAAATAGCTCTCACTTATTTAAA | 0.0902 | – | 0.0721 | – |
| ACAGACGAAGGAGCCGCAGAGAAGTTATTAAGGGATGAATAATCCCTCAATATAAATATCTCTCACTTATTTAAA | 0.799 | – | 0.839 | cleaved RNA product abundance [4]: 0.208 |
| CGACATGTCCCGCTTCTTTCATTAATCCGTTAGAACCTGTTTTGCTATATACATTTACCTTTTAAGAGGAGGAAT | – | 0.229 | – | – |
| CGACATGTCCCGCTTCTTTCATTAATCCGTTAGCAACTGTTTTGATATATACATTTGCCTTTTAAGAGGAGGAAT | – | 0.378 | – | – |
| ACAGACGAAGGAGCCGCAAATAAGTTGTTAAGGGATGAATAATCCCTCAATATAAATATCTCTCACTTATTTAAA | 0.458 | – | – | – |
| ACAGACGAAGGAGCCGCAAAGAAGTTATTAAGGGATGAATAATCCCTCAATATAAATTTGTCTCACTTATTTAAA | – | – | 0.98 | – |
| ACAGACGAAGGAGCCGCAAAAAAGTTATTAAGGGATTAATAATCCCTCAATATAAATATCTCTCACTTATTTAAA | 0.881 | – | 1.51 | – |
| ACAGACGAAGGAGCCGCAAAGACGTTATTAAGGGATGAATAATCCGTCAATATAAATATCTCTCACTTATTTAAA | 0.192 | – | – | – |
| ACAGACGAAGGAGCCGCAAAGAAGTTATTAAAGGATGAATAATCCTTCAATATAAATATCTCTCACTTATTTAAA | 0.86 | – | 0.646 | – |
| ACAGACGAAGGAGCCGCAAAGAAGTCATTAACGGATGAATAATCCCTCAATATAAATATCTCTCACTTATTTAAA | 0.128 | – | – | – |
| CGACATGTCCCGCTTCTTTCATTAATCCATTAGCAACTGTTTTTCTATATACATTTACCTTTTAAGAGGAGGAAT | – | 0.319 | – | – |

Reference: the supplement of paper PMC11780869
